According to the RNAGym collection of RNA variant scans (doi:10.1093/molbev/msab373):

B1: Azoarcus group I ribozyme (parent)
chain: GUGCCUUGCGCCGGGAAACCACGCAAGGGAUGGUGUCAAAUUCGGCGAAACCUAAGCGCCCGCCCGGGCGUAUGGCAACGCCGAGCCAAGCUUCGGCGCCUGCGCCGAUGAAGGUGUAGAGACUAGACGGCACCCACCUAAGGCAAACGCUAUGGUGAAGGCAUAGUCCAGGGAGUGGCGAAAGUCACACAAACCGG

Variants of: B1
Test: reverse-splicing fitness (ratio to wild type); higher = more active; in vitro selection; Mg2+ level not given
Procedure, shortened: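 An in vitro group I ribozyme library with randomized positions was T7-transcribed and gel-purified. In triplicate, 10 pmol RNA in EPPS pH 7.5 was reacted with 50 pmoles of a 30-nt RNA substrate for 1 h at 37 °C across several added MgCl2 levels (1–48 mM), then stopped with EDTA. Products were reverse transcribed from a substrate-complementary primer, PCR-amplified and sequenced (HiSeq 4000). Fitness is a variant's read proportion after selection over that before, normalised to wild type.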

Variant | reverse-splicing fitness
GUGCCUUGCGCCGGGAAACCACGCAAGGGAUGGUGUCAAAUUCGGCGAAACCUAAGCGCCCGCCCGGGCGUAUGGCAACGCCGAGCCAAGCUUCGGCGCCUGCGCCGAUGGAGGUGUAGUGACUAGACGGCACCCACCUAAGGCAAACGUUAUGGUGAAGGCAUAGUCCAGGGAGUGGCGAAAGUCACACAAACCGG | 0.538
GUGCCUUGCGCCGGGAAACCACGCAAGGGAUGGUGUCAAAUUCGGCGAAACCUAAGCGCCCGCCCGGGCGUAUGGCAACGCCGAGCCAAGCUUCGGCGCCUGCGCCGAUGGAGGUGUAGUGACUAGACGGCACCCACCUAAGGCAAACGGUAUGGUGAAGGCAUAGUCAAGGGAGAGGCGAAAGUCACACAAACCGG | 0.00453
GUGCCUUGCGCCGGGAAACCACGCAAGGGAUGGUGUCAAAUUCGGCGAAACCUAAGCGCCCGCCCGGGCGUAUGGCAACGCCGAGCCAAGCUUCGGCGCCUGCGCCGAUGGAGGUGUAGUGACUAGACGGCACCCACCUAAGGCAAACGGUAUGGUGAAGGCAUAGUCAAGGGAGGGGCGAAAGUCACACAAACCGG | 0.00246
GUGCCUUGCGCCGGGAAACCACGCAAGGGAUGGUGUCAAAUUCGGCGAAACCUAAGCGCCCGCCCGGGCGUAUGGCAACGCCGAGCCAAGCUUCGGCGCCUGCGCCGAUGGAGGUGUAGUGACUAGACGGCACCCACCUAAGGCAAACGGUAUGGUGAAGGCAUAGUCAAGGGAGCGGCGAAAGUCACACAAACCGG | 0.00366
GUGCCUUGCGCCGGGAAACCACGCAAGGGAUGGUGUCAAAUUCGGCGAAACCUAAGCGCCCGCCCGGGCGUAUGGCAACGCCGAGCCAAGCUUCGGCGCCUGCGCCGAUGGAGGUGUAGUGACUAGACGGCACCCACCUAAGGCAAACGUUAUGGUGAAGGCAUAGUCAAGGGAGCGGCGAAAGUCACACAAACCGG | 0.00257
GUGCCUUGCGCCGGGAAACCACGCAAGGGAUGGUGUCAAAUUCGGCGAAACCUAAGCGCCCGCCCGGGCGUAUGGCAACGCCGAGCCAAGCUUCGGCGCCUGCGCCGAUGGAGGUGUAGUGACUAGACGGCACCCACCUAAGGCAAACGUUAUGGUGAAGGCAUAGUCAAGGGAGAGGCGAAAGUCACACAAACCGG | 0.00336
GUGCCUUGCGCCGGGAAACCACGCAAGGGAUGGUGUCAAAUUCGGCGAAACCUAAGCGCCCGCCCGGGCGUAUGGCAACGCCGAGCCAAGCUUCGGCGCCUGCGCCGAUGGAGGUGUAGUGACUAGACGGCACCCACCUAAGGCAAACGUUAUGGUGAAGGCAUAGUCAAGGGAGGGGCGAAAGUCACACAAACCGG | 0.00227
GUGCCUUGCGCCGGGAAACCACGCAAGGGAUGGUGUCAAAUUCGGCGAAACCUAAGCGCCCGCCCGGGCGUAUGGCAACGCCGAGCCAAGCUUCGGCGCCUGCGCCGAUGGAGGUGUAGUGACUAGACGGCACCCACCUAAGGCAAACGGUAUGGUGAAGGCAUAGUCGAGGGAGAGGCGAAAGUCACACAAACCGG | 0.00427
GUGCCUUGCGCCGGGAAACCACGCAAGGGAUGGUGUCAAAUUCGGCGAAACCUAAGCGCCCGCCCGGGCGUAUGGCAACGCCGAGCCAAGCUUCGGCGCCUGCGCCGAUGGAGGUGUAGUGACUAGACGGCACCCACCUAAGGCAAACGGUAUGGUGAAGGCAUAGUCGAGGGAGGGGCGAAAGUCACACAAACCGG | 0.00237
GUGCCUUGCGCCGGGAAACCACGCAAGGGAUGGUGUCAAAUUCGGCGAAACCUAAGCGCCCGCCCGGGCGUAUGGCAACGCCGAGCCAAGCUUCGGCGCCUGCGCCGAUGGAGGUGUAGUGACUAGACGGCACCCACCUAAGGCAAACGGUAUGGUGAAGGCAUAGUCGAGGGAGCGGCGAAAGUCACACAAACCGG | 0.00213
GUGCCUUGCGCCGGGAAACCACGCAAGGGAUGGUGUCAAAUUCGGCGAAACCUAAGCGCCCGCCCGGGCGUAUGGCAACGCCGAGCCAAGCUUCGGCGCCUGCGCCGAUGGAGGUGUAGUGACUAGACGGCACCCACCUAAGGCAAACGAUAUGGUGAAGGCAUAGUCCAGGGAGGGGCGAAAGUCACACAAACCGG | 0.0203
GUGCCUUGCGCCGGGAAACCACGCAAGGGAUGGUGUCAAAUUCGGCGAAACCUAAGCGCCCGCCCGGGCGUAUGGCAACGCCGAGCCAAGCUUCGGCGCCUGCGCCGAUGGAGGUGUAGUGACUAGACGGCACCCACCUAAGGCAAACGAUAUGGUGAAGGCAUAGUCCAGGGAGCGGCGAAAGUCACACAAACCGG | 0.0464
GUGCCUUGCGCCGGGAAACCACGCAAGGGAUGGUGUCAAAUUCGGCGAAACCUAAGCGCCCGCCCGGGCGUAUGGCAACGCCGAGCCAAGCUUCGGCGCCUGCGCCGAUGGAGGUGUAGUGACUAGACGGCACCCACCUAAGGCAAACGAUAUGGUGAAGGCAUAGUCCAGGGAGAGGCGAAAGUCACACAAACCGG | 0.0485
GUGCCUUGCGCCGGGAAACCACGCAAGGGAUGGUGUCAAAUUCGGCGAAACCUAAGCGCCCGCCCGGGCGUAUGGCAACGCCGAGCCAAGCUUCGGCGCCUGCGCCGAUGGAGGUGUAGUGACUAGACGGCACCCACCUAAGGCAAACGAUAUGGUGAAGGCAUAGUCUAGGGAGGGGCGAAAGUCACACAAACCGG | 0.00282
GUGCCUUGCGCCGGGAAACCACGCAAGGGAUGGUGUCAAAUUCGGCGAAACCUAAGCGCCCGCCCGGGCGUAUGGCAACGCCGAGCCAAGCUUCGGCGCCUGCGCCGAUGGAGGUGUAGUGACUAGACGGCACCCACCUAAGGCAAACGAUAUGGUGAAGGCAUAGUCUAGGGAGCGGCGAAAGUCACACAAACCGG | 0.00598
